This passage reports ratio to parent results from publication PMC12320502.

This assay deals with HSPA5 tagged with Myc (pcDNA3.1) (UniProt P11021). Description: Co-IP (IP: Flag, immunoblot: Myc), band intensity number under the Myc blot. Conditions: parent: 1.0. For orientation: A western blot detects proteins with antibodies after separation by electrophoresis.
Chain of UniProt P11021 (P11021 19-654): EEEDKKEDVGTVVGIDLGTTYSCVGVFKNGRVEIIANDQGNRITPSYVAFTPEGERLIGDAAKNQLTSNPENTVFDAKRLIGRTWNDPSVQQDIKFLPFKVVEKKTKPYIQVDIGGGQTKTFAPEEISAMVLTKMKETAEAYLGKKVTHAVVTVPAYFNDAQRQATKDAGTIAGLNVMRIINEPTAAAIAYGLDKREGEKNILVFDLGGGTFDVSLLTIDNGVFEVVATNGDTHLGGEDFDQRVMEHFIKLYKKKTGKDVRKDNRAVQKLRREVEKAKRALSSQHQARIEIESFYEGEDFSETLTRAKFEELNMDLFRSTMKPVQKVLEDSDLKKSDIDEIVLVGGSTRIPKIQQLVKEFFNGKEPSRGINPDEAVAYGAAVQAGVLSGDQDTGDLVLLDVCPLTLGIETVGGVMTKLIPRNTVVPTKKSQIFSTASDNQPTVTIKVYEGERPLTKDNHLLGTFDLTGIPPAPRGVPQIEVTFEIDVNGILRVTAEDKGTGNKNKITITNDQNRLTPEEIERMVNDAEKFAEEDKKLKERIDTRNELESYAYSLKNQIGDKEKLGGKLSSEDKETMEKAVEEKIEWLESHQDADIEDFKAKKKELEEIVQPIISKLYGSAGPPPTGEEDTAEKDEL

Consider “SBSPON tagged with 3×Flag (pcDNA3.1-3×Flag-SBSPON) (from UniProt Q8IVN8) ASP88Vla”, for which the ratio to parent amounted to 0.7.
For “SBSPON tagged with 3×Flag (pcDNA3.1-3×Flag-SBSPON) (from UniProt Q8IVN8) ASP88Vla; LYS91Vla; GLU123Vla; HIS134Vla” the value was 0.8; for “SBSPON tagged with 3×Flag (pcDNA3.1-3×Flag-SBSPON) (from UniProt Q8IVN8) GLU123Vla”, 0.9; for “SBSPON tagged with 3×Flag (pcDNA3.1-3×Flag-SBSPON) (from UniProt Q8IVN8) HIS134Vla”, 0.8.
For “SBSPON tagged with 3×Flag (pcDNA3.1-3×Flag-SBSPON) (from UniProt Q8IVN8) LYS91Vla”, the ratio to parent worked out at 0.9.
